Drawing on paper PMC12814185, “Receptor-Mediated Shuttling of a D‑Amino Acid Peptide Achieves High Nanomolar Cytosolic Concentrations” (Journal of the American Chemical Society, 2025), this text covers Kd for 1 substance.

For this assay, the target named is recombinant human GST-MDM2 (human) (UniProt Q00987). Description: fluorescence polarisation.
Chain of recombinant human GST-MDM2 (human) (Q00987 whole entry): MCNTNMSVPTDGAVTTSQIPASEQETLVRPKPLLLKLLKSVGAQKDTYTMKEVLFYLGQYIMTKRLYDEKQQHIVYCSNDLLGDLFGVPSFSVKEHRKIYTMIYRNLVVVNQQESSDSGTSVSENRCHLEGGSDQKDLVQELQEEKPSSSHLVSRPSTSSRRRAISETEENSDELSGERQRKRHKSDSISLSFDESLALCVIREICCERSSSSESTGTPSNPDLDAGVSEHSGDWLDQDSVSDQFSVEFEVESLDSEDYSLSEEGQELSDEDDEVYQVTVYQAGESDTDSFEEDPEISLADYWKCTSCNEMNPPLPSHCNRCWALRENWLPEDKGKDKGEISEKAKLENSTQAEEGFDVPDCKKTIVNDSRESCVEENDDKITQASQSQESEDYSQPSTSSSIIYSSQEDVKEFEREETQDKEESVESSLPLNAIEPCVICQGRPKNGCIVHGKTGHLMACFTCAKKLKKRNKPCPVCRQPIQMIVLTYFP

For the substance Cy5-r9-PMIγ (peptide), the dissociation constant Kd came to 57 nM.
